Measured values as given in paper PMC12020772 (Journal for Immunotherapy of Cancer, 2025).

Tests used:
[1] = target: MICA alpha-3 domain of MICA*001 (Homo sapiens, allele MICA*001, UniProt Q29983, strain); test: crystal structure
[2] = target: MICA*001 extracellular domain (Homo sapiens, allele MICA*001, UniProt Q29983); test: ELISA
[3] = target: MICA*002 extracellular domain (Homo sapiens, allele MICA*002 (stand-in …, UniProt Q29983)); test: ELISA
[4] = target: MICB*004 extracellular domain (Homo sapiens, allele MICB*004, UniProt Q29980); test: BLI

Row | Binder | binding result [1] | binding result [2] | binding result [3] | Kd [4]
1 | Fab fragment of CLN-619 (Fab, V domains shown) VH: QVQLVESGGGLVKPGGSLRLSCAASGFTFSNYAMSWIRQAPGKGLEWVSYISPGGDYIYYADSVKGRFTISRDNAKNSLYLQMNSLRAEDTAVYYCTTDRRHYGSYAMDYWGQGTLVTVSS VL: DIVMTQSPLSLPVTPGEPASISCRSSKSLLHSNLNTYLYWFLQKPGQSPQILIYRMSNLASGVPDRFSGSGSGTAFTLKISRVEAEDVGVYYCMQHLEYPFTFGPGTKLEIK | binds |  |  | 
2 | CLN-619, humanized IgG1 monoclonal antibody against MICA/B (antibody, V domains shown) VH: QVQLVESGGGLVKPGGSLRLSCAASGFTFSNYAMSWIRQAPGKGLEWVSYISPGGDYIYYADSVKGRFTISRDNAKNSLYLQMNSLRAEDTAVYYCTTDRRHYGSYAMDYWGQGTLVTVSS VL: DIVMTQSPLSLPVTPGEPASISCRSSKSLLHSNLNTYLYWFLQKPGQSPQILIYRMSNLASGVPDRFSGSGSGTAFTLKISRVEAEDVGVYYCMQHLEYPFTFGPGTKLEIK |  | binds | binds | 11.4 nM
